Measured values from PMC5435919 (Nucleic Acids Research, 2017).

Key:
[1] = biological target: the molecule itself; experiment: atomic force microscopy
[2] = biological target: the molecule itself; experiment: SEC-MALS
[3] = biological target: T1, DmGen (1-518)-His (Drosophila melanogaster, UniProt Q9VRJ0 1-518); experiment: EMSA
T1 sequence: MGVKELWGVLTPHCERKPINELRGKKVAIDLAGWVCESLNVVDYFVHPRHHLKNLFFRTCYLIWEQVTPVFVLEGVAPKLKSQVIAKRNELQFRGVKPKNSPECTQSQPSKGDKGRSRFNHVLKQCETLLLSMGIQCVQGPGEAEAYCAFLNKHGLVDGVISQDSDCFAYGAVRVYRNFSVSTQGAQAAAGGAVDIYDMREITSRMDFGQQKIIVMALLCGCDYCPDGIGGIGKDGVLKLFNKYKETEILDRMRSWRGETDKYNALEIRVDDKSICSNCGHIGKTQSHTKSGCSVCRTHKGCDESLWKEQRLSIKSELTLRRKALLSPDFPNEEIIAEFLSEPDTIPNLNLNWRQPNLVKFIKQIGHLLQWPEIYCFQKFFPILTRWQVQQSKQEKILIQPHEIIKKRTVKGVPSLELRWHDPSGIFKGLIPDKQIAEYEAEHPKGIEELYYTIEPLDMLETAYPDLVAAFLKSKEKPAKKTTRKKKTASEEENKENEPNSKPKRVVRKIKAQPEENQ

B1: truncated DmGen (1-518 aa) with C-terminal hexahistidine tag (enzyme, Drosophila, UniProt Q9VRJ0 1-518, looked up)
chain: T1 sequence
Kd [1]: ~100 nM | stoichiometry N [2]: 2

B2: linear dsDNA (oligos 888/888rc) (dsDNA)
DNA 1: GACGCTGCCGAATTCTGGCGTTAGGAGATACCGATAAGCTTCGGCTTAA
DNA 2: TTAAGCCGAAGCTTATCGGTATCTCCTAACGCCAGAATTCGGCAGCGTC
binding result [3]: no binding
